Data on 14 molecules can be found in patent US20160303245A1 (UNIVERSITY OF COPENHAGEN, published 2016).

One may read the Kd as a measure of binding affinity in units of concentration. A higher Kd goes with weaker binding.

Assay [1] deals with T1, Human Serum Albumin (human, UniProt P02768 25-609).
T1 construct: Bought reagent; also called HSA
The assay can be described thus: Transil XL HSA binding kit (immobilized HSA), unbound compound by RP-HPLC.
Experimental: (§1) The assay kit consisted of prefilled wells with increasing concentrations of immobilized HSA as well as two control wells without HSA. The HSA had been immobilized in a random fashion to ensure that all binding sites on HSA were available. To conduct the assay, the wells were incubated with a known concentration of the tested compounds, and the unbound amount of compound was quantified using analytical RP-HPLC (C8 column). The fraction of unbound drug (fᵤ) for each data point was calculated from the RP-HPLC data by comparison to a control sample without HSA.

Assay [2] concerns the target T1, Human Serum Albumin. Kind of assay: calculated from KD at 588 µM HSA (equation 2).
Experimental: as §1
The target of assay [3] is T2, PSD-95 PDZ1-2 (UniProt P78352 61-249, limits assumed).
T2 construct: domain: PDZ1-2; also called PDZ1-2 of PSD-95
The assay can be described thus: FP competition vs dimeric fluorescent probe, TBS + 1% HSA (apparent).
Experimental: (§2) The FP values were fitted to a one site competition (variable slope) model in GraphPad Prism. […] The modified FP assay was conducted as described above with 1% HSA in the assay.

The target in assay [4] is T2, PSD-95 PDZ1-2. Kind of assay: FP competition, TBS + 1% HSA, corrected for fu (free ligand).
Experimental: as §2
Assay [5] deals with T1, Human Serum Albumin. Kind of assay: calculated from KD(HSA) at 150 µM HSA (equation 2).
Assay [6] deals with T1, Human Serum Albumin. The assay can be described thus: Transil XL HSA binding kit (immobilized HSA), unbound compound by RP-HPLC. The source holds these as a separate data set.
Experimental: as §1
Assay [7] concerns the target T2, PSD-95 PDZ1-2. Kind of assay: FP competition vs dimeric fluorescent probe, TBS.
The target in assay [8] is T2, PSD-95 PDZ1-2. The assay can be described thus: FP competition, TBS + 1% HSA, corrected for fu (free ligand). This is another data set of the same source.
In assay [9] the target is T2, PSD-95 PDZ1-2. The assay can be described thus: FP competition vs dimeric fluorescent probe, TBS. The source holds these as a separate data set.
The target of assay [10] is T1, Human Serum Albumin. The assay can be described thus: calculated from KD(HSA) at 150 µM HSA (equation 2). The source holds these as a separate data set.
The target in assay [11] is T2, PSD-95 PDZ1-2. The assay can be described thus: FP competition vs dimeric fluorescent probe, TBS + 1% HSA (apparent). The source holds these as a separate data set.
Assay [12] addresses T2, PSD-95 PDZ1-2. Kind of assay: FP competition, TBS + 1% HSA.
Experimental: as §2
The synthesized FA-linked dimeric ligands were evaluated for their affinity to PSD-95 PDZ1-2 in the FP assay.

Like-named read-outs stand apart in the source and are kept apart here. *1 amine or outer side, *2 acyl side, *3 side chain or, on linkers, in order; H or OH if unused. Where no end group is shown, it is not given here. The star is where a group is joined. γGlu = O=C(O)[C@H](CCC(=O)[*:2])N[*:1]; Stearoyl = CCCCCCCCCCCCCCCCCC(=O)*; Lauroyl = CCCCCCCCCCCC(=O)*; NPEG4 = not defined here; Ava = NCCCCC(=O)O; GABA = NCCCC(=O)O

T2 sequence (P78352 61-249 limits assumed): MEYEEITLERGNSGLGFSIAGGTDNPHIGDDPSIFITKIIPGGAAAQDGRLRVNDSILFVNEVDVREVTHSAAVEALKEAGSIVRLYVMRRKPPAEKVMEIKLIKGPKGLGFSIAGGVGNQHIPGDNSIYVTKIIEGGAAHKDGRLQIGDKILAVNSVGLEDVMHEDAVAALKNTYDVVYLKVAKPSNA

B1: FA-linked dimeric ligand 3 (peptide)
peptide: {Stearoyl-GABA-NPEG4}-IETAV
modifications: not fully specified; reading uncertain; also: dimer: two chains joined at N-termini through NPEG4
notes: Synthetic dimer NPEG4(IETAV)2 with fatty acid on the linker nitrogen; also called compound 3
In the case of B1, the Kd in [1] and in assay [6] was 4800 nM in each case. For the same molecule, the “fb (%), fraction bound to HSA” value in [2] was 99.2%. The Ki in [3] was 1890 nM; in assay [4], 57.2 nM; in assay [7] it was 11.1 nM; in [8], 57.2 nM; in assay [9] it was 11.1 nM; in assay [11] it was 1890 nM. Besides, the “fu (%), fraction unbound” value in assay [5] and in [10] was 3.1% in each case. Moreover, in assay [12], the “fold affinity loss in TBS+HSA” value amounted to 50 fold. Further, the “fold lower apparent affinity than the dimeric ligands linked to the shorter FAs (C12:0 or C11:0-COOH)” value in [12] was over 50 fold.

B2: FA-linked dimeric ligand 12 (peptide)
peptide: {C17:0‑COOH acyl-Ava-NPEG4}-IETAV
modifications: not fully specified; reading uncertain; also: dimer: two chains joined at N-termini through NPEG4, linker taken from rows above (blank cell)
notes: Synthetic dimer NPEG4(IETAV)2 with fatty acid on the linker nitrogen; also called compound 12
B2 came in with a Kd in [1] of 23500 nM. Besides, the “fb (%), fraction bound to HSA” value in assay [2] was 96.2%. Moreover, the Ki in assay [4] was found to be 250 nM; in assay [9], 11.5 nM; in [11] it was 2930 nM. Further, the “fu (%), fraction unbound” value in [5] is 8.3%. Further, the “fold lower apparent affinity than the dimeric ligands linked to the shorter FAs (C12:0 or C11:0-COOH)” value in assay [12] is over 50 fold.

B3: FA-linked dimeric ligand 8 (peptide)
peptide: {C17:0‑COOH acyl-γGlu-NPEG4}-IETAV
modifications: not fully specified; reading uncertain; also: dimer: two chains joined at N-termini through NPEG4, linker taken from rows above (blank cell)
notes: Synthetic dimer NPEG4(IETAV)2 with fatty acid on the linker nitrogen; also called compound 8
B3: binding in [1] was put at a Kd of 34300 nM. Moreover, the “fb (%), fraction bound to HSA” value in [2] was 94.5%. The Ki was found to be 669 nM in [4], 9.2 nM in assay [9] and 3590 nM in assay [11]. Besides, the “fu (%), fraction unbound” value in assay [5] was 18.6%. Also, the “fold lower apparent affinity than the dimeric ligands linked to the shorter FAs (C12:0 or C11:0-COOH)” value in assay [12] is over 50 fold.

B4: FA-linked dimeric ligand 9 (peptide)
peptide: IETAV
modifications: not fully specified; also: dimer: N-termini of two peptides joined through NPEG4 linker
notes: Synthetic dimer NPEG4(IETAV)2 with fatty acid on the linker nitrogen; also called compound 9
In assay [1], B4 displayed a Kd of 55700 nM. Further, the “fb (%), fraction bound to HSA” value in assay [2] was 91.4%. Besides, the values for the Ki in [4], in [9] and in assay [11] were 2.6 nM, 20.5 nM and 13.4 nM, respectively. The “fu (%), fraction unbound” value in assay [5] was 27.1%.

B5: FA-linked dimeric ligand 6 (peptide)
peptide: {C11:0‑COOH acyl-γGlu-NPEG4}-IETAV
modifications: not fully specified; reading uncertain; also: dimer: two chains joined at N-termini through NPEG4, linker taken from row above (blank cell)
notes: Synthetic dimer NPEG4(IETAV)2 with fatty acid on the linker nitrogen; also called compound 6
The molecule B5 returned a Kd in [1] of 64600 nM. In addition, in [2], the “fb (%), fraction bound to HSA” value was 90.1%. Besides, the Ki in assay [4] was 7 nM; in [9] it was 33.7 nM; in assay [11], 26.4 nM. In addition, the “fu (%), fraction unbound” value in [5] is 30.1%.

B6: FA-linked dimeric ligand 7 (peptide)
peptide: {Stearoyl-γGlu-NPEG4}-IETAV
modifications: not fully specified; reading uncertain; also: dimer: two chains joined at N-termini through NPEG4
notes: Synthetic dimer NPEG4(IETAV)2 with fatty acid on the linker nitrogen; also called compound 7
For B6, the Kd in [1] and in assay [6] was 6800 nM in each case. The “fb (%), fraction bound to HSA” value in [2] is 98.9%. For the same molecule, the Ki in assay [3] came out at 1390 nM; in [4], 59.1 nM; in [7] it was 17 nM; in [8], 59.1 nM; in assay [9], 17 nM; in assay [11], 1390 nM. Moreover, the “fu (%), fraction unbound” value in [5] and in assay [10] was 4.3% throughout. The “fold affinity loss in TBS+HSA” value in assay [12] turned out to be 50 fold. In assay [12], the “fold lower apparent affinity than the dimeric ligands linked to the shorter FAs (C12:0 or C11:0-COOH)” value is over 50 fold.

B7: FA-linked dimeric ligand 4 (peptide)
peptide: {C17:0‑COOH acyl-GABA-NPEG4}-IETAV
modifications: not fully specified; reading uncertain; also: dimer: two chains joined at N-termini through NPEG4
notes: Synthetic dimer NPEG4(IETAV)2 with fatty acid on the linker nitrogen; also called compound 4
For B7, the Kd in assay [1] and in assay [6] was 19400 nM throughout. For the same molecule, in assay [2], the “fb (%), fraction bound to HSA” value was 96.5%. The Ki came to 5720 nM in assay [3]; 654 nM in [4]; 11.4 nM in assay [7]; 654 nM in [8]; 11.4 nM in assay [9]; 5720 nM in [11]. The “fu (%), fraction unbound” value in assay [5] and in assay [10] was 11.5% in each case. The “fold lower apparent affinity than the dimeric ligands linked to the shorter FAs (C12:0 or C11:0-COOH)” value in [12] is over 50 fold.

IETAV (also: dimer: two peptides joined by a linker, no fatty acid, also called dimeric ligand UCCB01-125) [UCCB01-125]: the Kd in [1] amounted to 154000 nM. Further, the “fb (%), fraction bound to HSA” value in assay [2] is 77.6%. Besides, the Ki was 4.1 nM in [4], 14.3 nM in assay [9] and 9.7 nM in [11]. The “fu (%), fraction unbound” value in [5] is 50.7%.

B8: FA-linked dimeric ligand 2 (peptide)
peptide: {C11:0‑COOH acyl-GABA-NPEG4}-IETAV
modifications: not fully specified; reading uncertain; also: dimer: two chains joined at N-termini through NPEG4, linker taken from row above (blank cell)
notes: Synthetic dimer NPEG4(IETAV)2 with fatty acid on the linker nitrogen; also called compound 2
B8: the Kd in assay [1] is 49300 nM. The “fb (%), fraction bound to HSA” value in [2] was 92.3%. For the same molecule, the results for the Ki in assay [4], in [9] and in [11] were 5.5 nM, 15.4 nM and 27.9 nM, respectively. Further, the “fu (%), fraction unbound” value in assay [5] was 24.7%.

B9: FA-linked dimeric ligand 1 (peptide)
peptide: {Lauroyl-GABA-NPEG4}-IETAV
modifications: not fully specified; reading uncertain; also: dimer: two chains joined at N-termini through NPEG4
notes: Synthetic dimer NPEG4(IETAV)2 with fatty acid on the linker nitrogen; also called compound 1
For the molecule B9, the Kd in assay [1] turned out to be 26600 nM. Also, in assay [2], the “fb (%), fraction bound to HSA” value was 95.7%. Also, the Ki in assay [4] was found to be 3.2 nM; in [9], 13.6 nM; in assay [11] it was 27.2 nM. In [5], the “fu (%), fraction unbound” value was 15.1%.

B10: FA-linked dimeric ligand 13 (peptide)
peptide: {Stearoyl-GABA-NPEG4}-IETDV
modifications: not fully specified; reading uncertain; also: dimer: two chains joined at N-termini through NPEG4
notes: IETDV analogue of compound 3, synthesized analogously to 1-12; also called compound 13
Turning to B10, in assay [6], binding was characterised by a dissociation constant (Kd) of 83000 nM. Further, in assay [10], the “fu (%), fraction unbound” value was 35.6%.

B11: FA-linked dimeric ligand 5 (peptide)
peptide: {Lauroyl-γGlu-NPEG4}-IETAV
modifications: not fully specified; reading uncertain; also: dimer: two chains joined at N-termini through NPEG4
notes: Synthetic dimer NPEG4(IETAV)2 with fatty acid on the linker nitrogen; also called compound 5
As to B11, in [1], the Kd stood at 25800 nM. In addition, the “fb (%), fraction bound to HSA” value in assay [2] is 95.8%. Further, the Ki in assay [4] was 2.4 nM; in [9], 30.2 nM; in assay [11], 24 nM. The “fu (%), fraction unbound” value in [5] was 14.7%.

B12: FA-linked dimeric ligand 10 (peptide)
peptide: {C11:0‑COOH acyl-Ava-NPEG4}-IETAV
modifications: not fully specified; reading uncertain; also: dimer: two chains joined at N-termini through NPEG4, linker taken from row above (blank cell)
notes: Synthetic dimer NPEG4(IETAV)2 with fatty acid on the linker nitrogen; also called compound 10
The molecule B12 registered a Kd in [1] of 240000 nM. The “fb (%), fraction bound to HSA” value in assay [2] was 71%. Further, the Ki is 10.9 nM in assay [4], 13.9 nM in assay [9] and 18.5 nM in [11]. For the same molecule, the “fu (%), fraction unbound” value in assay [5] is 61.5%.

B13: FA-linked dimeric ligand 11 (peptide)
peptide: {Stearoyl-Ava-NPEG4}-IETAV
modifications: not fully specified; reading uncertain; also: dimer: two chains joined at N-termini through NPEG4, linker taken from rows above (blank cell)
notes: Synthetic dimer NPEG4(IETAV)2 with fatty acid on the linker nitrogen; also called compound 11
For B13, binding in assay [1] was put at a Kd of 12700 nM. Moreover, the “fb (%), fraction bound to HSA” value in assay [2] is 97.9%. Besides, the figures for the Ki in [4], in assay [9] and in assay [11] were 16.8 nM, 26.5 nM and 1890 nM, respectively. Moreover, the “fu (%), fraction unbound” value in [5] was 7.8%. For the same molecule, the “fold affinity loss in TBS+HSA” value in [12] is 50 fold. In addition, the “fold lower apparent affinity than the dimeric ligands linked to the shorter FAs (C12:0 or C11:0-COOH)” value in assay [12] is over 50 fold.
